Numbered stars: 1 amine (or outer) side, 2 acyl side, 3 side chain; on linkers, the order of the positions; unused ones are H or OH. Bridge positions count the residues as written; N and C are the ends. Side chains are listed from the residue outwards. Ends that are not written are not given here. * marks the point of attachment. C20 diacid = O=C(O)CCCCCCCCCCCCCCCCCCC(=O)*; γGlu = O=C(O)[C@H](CCC(=O)[*:2])N[*:1]

A word on the IC50: it is the concentration that inhibits the measured activity by half.

The target of assay [1] is T1, human amylin receptor (amylin 3(a) receptor: human calcitonin receptor with RAMP-3) (human, UniProt P30988 25-474; O60896 24-148).
T1 construct: whole, on cells; the functional assay (Assay IIa) used the whole cells; also called hAmylin-R; hAmylinR
T1 sequence (looked up) 1: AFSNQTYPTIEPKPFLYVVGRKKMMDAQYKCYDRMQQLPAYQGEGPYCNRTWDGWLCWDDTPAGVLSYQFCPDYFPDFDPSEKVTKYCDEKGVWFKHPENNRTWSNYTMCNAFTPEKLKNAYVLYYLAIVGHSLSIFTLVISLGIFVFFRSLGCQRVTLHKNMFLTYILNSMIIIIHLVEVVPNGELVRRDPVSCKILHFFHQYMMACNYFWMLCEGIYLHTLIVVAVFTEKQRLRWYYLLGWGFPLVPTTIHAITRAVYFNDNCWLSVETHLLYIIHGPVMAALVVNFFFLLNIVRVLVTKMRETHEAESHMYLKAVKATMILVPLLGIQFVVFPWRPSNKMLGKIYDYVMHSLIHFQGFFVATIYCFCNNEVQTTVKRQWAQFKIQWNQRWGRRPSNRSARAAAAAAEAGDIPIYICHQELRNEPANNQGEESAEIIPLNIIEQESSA
T1 sequence (looked up) 2: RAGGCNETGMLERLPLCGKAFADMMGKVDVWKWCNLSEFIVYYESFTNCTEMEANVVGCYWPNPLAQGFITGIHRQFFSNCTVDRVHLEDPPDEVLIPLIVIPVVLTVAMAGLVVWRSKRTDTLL
The experiment in a line: SPA competition, displacement of 125I-rat amylin from membranes of BHK cells with the human amylin 3(a) receptor. On the procedure:
The binding assay was performed using scintillation proximity assay (SPA) beads (RPNQ0001) from PerkinElmer and cell membranes from the Amylin 3(a)/CRE-luc cells (as described in Assay (II)) were used. Membranes were prepared in the following way; the cells were rinsed with PBS and incubated with Versene for approximately 5 min before harvesting. The cells were flushed with PBS and the cell-suspension was centrifuged for 5 min at 1000 rpm. Cells were homogenized (ultrathurrax) in a buffer containing 20 mM Na-HEPES and 10 mM EDTA (pH 7.4) and centrifuged at 20.000 rpm for 15 min. The resulting pellet was resuspended, homogenized and centrifuged (20.000 rpm, 15 min) in a buffer containing 20 mM Na-HEPES and 0.1 mM EDTA (pH 7.4, buffer 2). The resulting pellet was resuspended in buffer 2 and protein concentration was measured (BCA protein Assay, Pierce). The homogenate was kept cold during the whole procedure. The membranes were kept at −80° C. until use. The assay was performed in a 384 well Optiplate (PerkinElmer) in a total volume of 40 ul. Membranes were mixed with SPA beads. Final concentration of membranes 35 ng/μL final and SPA beads was 0.05 mg/well. Test-compounds were dissolved in DMSO and further diluted in assay buffer (50 mM Hepes, pH 7.4, 1 mM CaCl2, 5 mM MgCl₂, 0.1% OA and 0.02% Tween20). […] The final mixture was incubated with shaking at 400 rpm for 120 min at 25° C. prior to centrifugation (1500 rpm, 10 min). Samples were analyzed on TopCounter™ (Packard). The IC₅₀ was calculated using (one site binding competition analysis) GraphPad Prism5 as a measure of receptor affinity.

Assay [2] deals with T2, human calcitonin receptor (human, UniProt P30988 25-474).
T2 sequence (looked up): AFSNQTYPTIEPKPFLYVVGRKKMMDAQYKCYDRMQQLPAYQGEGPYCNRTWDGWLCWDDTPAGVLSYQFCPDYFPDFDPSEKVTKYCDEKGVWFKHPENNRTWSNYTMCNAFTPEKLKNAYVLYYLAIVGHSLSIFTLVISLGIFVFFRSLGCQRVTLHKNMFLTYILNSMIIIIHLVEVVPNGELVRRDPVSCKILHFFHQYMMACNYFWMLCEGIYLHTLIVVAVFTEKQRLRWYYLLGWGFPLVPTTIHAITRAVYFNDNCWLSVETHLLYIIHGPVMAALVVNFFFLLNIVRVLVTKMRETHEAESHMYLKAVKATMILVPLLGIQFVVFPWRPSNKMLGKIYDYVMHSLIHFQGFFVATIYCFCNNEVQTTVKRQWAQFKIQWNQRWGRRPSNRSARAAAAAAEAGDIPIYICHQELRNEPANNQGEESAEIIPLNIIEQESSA
The experiment in a line: cell-based or functional assay.

For assay [3], the target named is T1, human amylin receptor (amylin 3(a) …). The experiment in a line: cell-based or functional assay.

B1: N^α1-[(4S)-4-carboxy-4-(19-carboxynonadecanoylamino)butanoyl]-[Glu14,Arg17,Pro21,Pro25,Pro28,Pro29]-h-amylin (peptide)
peptide: {C20 diacid-γGlu}-KCNTATCATQRLAEFLRHSSPNFGPILPPTNVGSNTY-NH2
modifications: disulfide 2-7
SMILES: CC[C@H](C)[C@H](NC(=O)[C@@H]1CCCN1C(=O)CNC(=O)[C@H](Cc1ccccc1)NC(=O)[C@H](CC(N)=O)NC(=O)[C@@H]1CCCN1C(=O)[C@H](CO)NC(=O)[C@H](CO)NC(=O)[C@H](Cc1c[nH]cn1)NC(=O)[C@H](CCCNC(=N)N)NC(=O)[C@H](CC(C)C)NC(=O)[C@H](Cc1ccccc1)NC(=O)[C@H](CCC(=O)O)NC(=O)[C@H](C)NC(=O)[C@H](CC(C)C)NC(=O)[C@H](CCCNC(=N)N)NC(=O)[C@H](CCC(N)=O)NC(=O)[C@@H](NC(=O)[C@H](C)NC(=O)[C@@H]1CSSC[C@H](NC(=O)[C@H](CCCCN)NC(=O)CC[C@H](NC(=O)CCCCCCCCCCCCCCCCCCC(=O)O)C(=O)O)C(=O)N[C@@H](CC(N)=O)C(=O)N[C@@H]([C@@H](C)O)C(=O)N[C@@H](C)C(=O)N[C@@H]([C@@H](C)O)C(=O)N1)[C@@H](C)O)C(=O)N[C@@H](CC(C)C)C(=O)N1CCC[C@H]1C(=O)N1CCC[C@H]1C(=O)N[C@H](C(=O)N[C@@H](CC(N)=O)C(=O)N[C@H](C(=O)NCC(=O)N[C@@H](CO)C(=O)N[C@@H](CC(N)=O)C(=O)N[C@H](C(=O)N[C@@H](Cc1ccc(O)cc1)C(N)=O)[C@@H](C)O)C(C)C)[C@@H](C)O
notes: also called compound 6
As to B1, the IC50 in assay [1] was determined as 0.996 nM. In addition, in assay [2], the “Ratio hCT/hAmylin funct.” value is 5.7 and the “hCTR funct. EC50” value was determined as 0.729 nM. Moreover, the “hAmylin-R funct. EC50” value in assay [3] was determined as 0.128 nM.

B2: N^α1-[(4S)-4-carboxy-4-(19-carboxynonadecanoylamino)butanoyl]-[Glu14,Arg17,Pro21,Pro26,Pro37]-h-amylin (peptide)
peptide: {C20 diacid-γGlu}-KCNTATCATQRLAEFLRHSSPNFGAPLSSTNVGSNTP-NH2
modifications: disulfide 2-7
SMILES: CC(C)C[C@H](NC(=O)[C@H](CCCNC(=N)N)NC(=O)[C@H](CCC(N)=O)NC(=O)[C@@H](NC(=O)[C@H](C)NC(=O)[C@@H]1CSSC[C@H](NC(=O)[C@H](CCCCN)NC(=O)CC[C@H](NC(=O)CCCCCCCCCCCCCCCCCCC(=O)O)C(=O)O)C(=O)N[C@@H](CC(N)=O)C(=O)N[C@@H]([C@@H](C)O)C(=O)N[C@@H](C)C(=O)N[C@@H]([C@@H](C)O)C(=O)N1)[C@@H](C)O)C(=O)N[C@@H](C)C(=O)N[C@@H](CCC(=O)O)C(=O)N[C@@H](Cc1ccccc1)C(=O)N[C@@H](CC(C)C)C(=O)N[C@@H](CCCNC(=N)N)C(=O)N[C@@H](Cc1c[nH]cn1)C(=O)N[C@@H](CO)C(=O)N[C@@H](CO)C(=O)N1CCC[C@H]1C(=O)N[C@@H](CC(N)=O)C(=O)N[C@@H](Cc1ccccc1)C(=O)NCC(=O)N[C@@H](C)C(=O)N1CCC[C@H]1C(=O)N[C@@H](CC(C)C)C(=O)N[C@@H](CO)C(=O)N[C@@H](CO)C(=O)N[C@H](C(=O)N[C@@H](CC(N)=O)C(=O)N[C@H](C(=O)NCC(=O)N[C@@H](CO)C(=O)N[C@@H](CC(N)=O)C(=O)N[C@H](C(=O)N1CCC[C@H]1C(N)=O)[C@@H](C)O)C(C)C)[C@@H](C)O
notes: also called compound 5
As to B2, in assay [1], the IC50 was determined as 0.374 nM. Moreover, in assay [2], the “Ratio hCT/hAmylin funct.” value stood at 1 and the “hCTR funct. EC50” value is 0.16 nM. Further, in assay [3], the “hAmylin-R funct. EC50” value was 0.162 nM.
For the molecule {C20 diacid-γGlu}-KCNTATCATQRLAEFLRHSSPNFGAILPSTNVGSETY-NH2 (disulfide 2-7, also called compound 33), the IC50 in assay [1] amounted to 0.915 nM. In assay [2], the “Ratio hCT/hAmylin funct.” value was 2.2 and the “hCTR funct. EC50” value is 0.528 nM. Besides, in assay [3], the “hAmylin-R funct. EC50” value stood at 0.243 nM.

B3: N^α1-[(4S)-4-carboxy-4-(19-carboxynonadecanoylamino)butanoyl]-[Glu14,Arg17,Pro21,Pro26]-h-amylin (peptide)
peptide: {C20 diacid-γGlu}-KCNTATCATQRLAEFLRHSSPNFGAPLSSTNVGSNTY-NH2
modifications: disulfide 2-7
SMILES: CC(C)C[C@H](NC(=O)[C@H](CCCNC(=N)N)NC(=O)[C@H](CCC(N)=O)NC(=O)[C@@H](NC(=O)[C@H](C)NC(=O)[C@@H]1CSSC[C@H](NC(=O)[C@H](CCCCN)NC(=O)CC[C@H](NC(=O)CCCCCCCCCCCCCCCCCCC(=O)O)C(=O)O)C(=O)N[C@@H](CC(N)=O)C(=O)N[C@@H]([C@@H](C)O)C(=O)N[C@@H](C)C(=O)N[C@@H]([C@@H](C)O)C(=O)N1)[C@@H](C)O)C(=O)N[C@@H](C)C(=O)N[C@@H](CCC(=O)O)C(=O)N[C@@H](Cc1ccccc1)C(=O)N[C@@H](CC(C)C)C(=O)N[C@@H](CCCNC(=N)N)C(=O)N[C@@H](Cc1c[nH]cn1)C(=O)N[C@@H](CO)C(=O)N[C@@H](CO)C(=O)N1CCC[C@H]1C(=O)N[C@@H](CC(N)=O)C(=O)N[C@@H](Cc1ccccc1)C(=O)NCC(=O)N[C@@H](C)C(=O)N1CCC[C@H]1C(=O)N[C@@H](CC(C)C)C(=O)N[C@@H](CO)C(=O)N[C@@H](CO)C(=O)N[C@H](C(=O)N[C@@H](CC(N)=O)C(=O)N[C@H](C(=O)NCC(=O)N[C@@H](CO)C(=O)N[C@@H](CC(N)=O)C(=O)N[C@H](C(=O)N[C@@H](Cc1ccc(O)cc1)C(N)=O)[C@@H](C)O)C(C)C)[C@@H](C)O
notes: also called compound 7
For the molecule B3, the IC50 in assay [1] worked out at 0.674 nM. In addition, in assay [2], the “Ratio hCT/hAmylin funct.” value amounted to 4.5 and the “hCTR funct. EC50” value is 1.16 nM. Also, in assay [3], the “hAmylin-R funct. EC50” value worked out at 0.255 nM.

B4: N^ε1-[(4S)-4-carboxy-4-[[(4S)-4-carboxy-4-(19-carboxynonadecanoylamino)butanoyl]amino]butanoyl]-[Asp14,Arg17,Pro21,Pro26,Asp35]-h-amylin (peptide)
peptide: K([γGlu-γGlu-C20 diacid])CNTATCATQRLADFLRHSSPNFGAPLSSTNVGSDTY-NH2
modifications: disulfide 2-7; N-terminus assumed
SMILES: CC(C)C[C@H](NC(=O)[C@H](CCCNC(=N)N)NC(=O)[C@H](CCC(N)=O)NC(=O)[C@@H](NC(=O)[C@H](C)NC(=O)[C@@H]1CSSC[C@H](NC(=O)[C@@H](N)CCCCNC(=O)CC[C@H](NC(=O)CC[C@H](NC(=O)CCCCCCCCCCCCCCCCCCC(=O)O)C(=O)O)C(=O)O)C(=O)N[C@@H](CC(N)=O)C(=O)N[C@@H]([C@@H](C)O)C(=O)N[C@@H](C)C(=O)N[C@@H]([C@@H](C)O)C(=O)N1)[C@@H](C)O)C(=O)N[C@@H](C)C(=O)N[C@@H](CC(=O)O)C(=O)N[C@@H](Cc1ccccc1)C(=O)N[C@@H](CC(C)C)C(=O)N[C@@H](CCCNC(=N)N)C(=O)N[C@@H](Cc1c[nH]cn1)C(=O)N[C@@H](CO)C(=O)N[C@@H](CO)C(=O)N1CCC[C@H]1C(=O)N[C@@H](CC(N)=O)C(=O)N[C@@H](Cc1ccccc1)C(=O)NCC(=O)N[C@@H](C)C(=O)N1CCC[C@H]1C(=O)N[C@@H](CC(C)C)C(=O)N[C@@H](CO)C(=O)N[C@@H](CO)C(=O)N[C@H](C(=O)N[C@@H](CC(N)=O)C(=O)N[C@H](C(=O)NCC(=O)N[C@@H](CO)C(=O)N[C@@H](CC(=O)O)C(=O)N[C@H](C(=O)N[C@@H](Cc1ccc(O)cc1)C(N)=O)[C@@H](C)O)C(C)C)[C@@H](C)O
notes: also called compound 1
In the case of B4, the IC50 in assay [1] was 1.18 nM. Moreover, in assay [2], the “Ratio hCT/hAmylin funct.” value amounted to 12 and the “hCTR funct. EC50” value came to 2.7 nM. The “hAmylin-R funct. EC50” value in assay [3] turned out to be 0.224 nM.

For the origin of these results see US20140087995A1 (published 2014).
